Biological target: catalytic subunit α of PKA (PKA-Cα) (human (endogenous in HCT116 and HCT-15), UniProt P17612 1-351)
Assay: co-IP; immunoprecipitation with anti-PKA Cα (4782, Cell Signaling) and protein-G Sepharose from 2 mg HCT116 lysate, 2 h at 4 °C, IP lysis buffer (50 mM tris/HCl pH 7.4, 150 mM NaCl, 0,25% NP-40); cells mitotically arrested (2 µM dimethylenastron, 16 h) or asynchronous with DMSO, E2, BPA, DES or G-1 for 48 h; Western blot, Centrin-pS170 band normalised to precipitated PKA Cα
Conditions: partners not purified

- fold increase of co-precipitated Centrin-pS170 (normalised to PKA-Cα) with BPA, relative to DMSO: 1.8 fold
- fold increase of co-precipitated Centrin-pS170 (normalised to PKA-Cα) with DES, relative to DMSO: 1.6 fold
- fold increase of co-precipitated Centrin-pS170 (normalised to PKA-Cα) with E2, relative to DMSO: 1.4 fold
B1: Centrin-2 phosphorylated at serine 170 (Centrin-2-pS170) (natural protein, human (endogenous in HCT116 and HCT-15), UniProt P41208 1-172, looked up)
chain: MASNFKKANMASSSQRKRMSPKPELTEEQKQEIREAFDLFDADGTGTIDVKELKVAMRALGFEPKKEEIKKMISEIDKEGTGKMNFGDFLTVMTQKMSEKDTKEEILKAFKLFDDDETGKISFKNLKRVAKELGENLTDEELQEMIDEADRDGDGEVSEQEFLRIMKKTSLY
modifications: phosphoserine at 170
notes: Centrin-2, human, endogenous, the form phosphorylated at S170 as detected by the anti-Centrin-2-pS170 antibody (raised against Cys-LRIMKKT(pS)LY172); NM_004344.3 is printed for the Centrin wild-type expression vector, not for the endogenous protein of the co-IP; also called Centrin-pS170; phosphorylated Centrin-2; source: endogenous, HCT116 and HCT-15 lysates
